Key:
[1] = target: T1, human GFRα3 expressed with a C-terminal myc-myc-hexahistidine tag (human, UniProt O60609 32-374, biotinylated (sites not given) in ELISA format 2 and in the Octet cross-competition; not in SPR); test: SPR, Ab captured, 25C
T1 construct: also called hGFRα3-mmh; hGFRα3-mmH
Summary of the method: (§1)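 Captured antibodies on a CM5 sensor were exposed to GFRα3 in HBS-EP or PBS/0.05% P20. The mmh-tagged proteins ran at 200–7.4 nM and the hFc-tagged protein at 100–3.7 nM. Rate constants were obtained by a 1:1 fit.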

[2] = target: T2, human GFRα3 expressed with a C-terminal mFc tag (human); test: SPR, Ab captured, 25C
T2 construct: also called hGFRα3-mFc
T2 chain: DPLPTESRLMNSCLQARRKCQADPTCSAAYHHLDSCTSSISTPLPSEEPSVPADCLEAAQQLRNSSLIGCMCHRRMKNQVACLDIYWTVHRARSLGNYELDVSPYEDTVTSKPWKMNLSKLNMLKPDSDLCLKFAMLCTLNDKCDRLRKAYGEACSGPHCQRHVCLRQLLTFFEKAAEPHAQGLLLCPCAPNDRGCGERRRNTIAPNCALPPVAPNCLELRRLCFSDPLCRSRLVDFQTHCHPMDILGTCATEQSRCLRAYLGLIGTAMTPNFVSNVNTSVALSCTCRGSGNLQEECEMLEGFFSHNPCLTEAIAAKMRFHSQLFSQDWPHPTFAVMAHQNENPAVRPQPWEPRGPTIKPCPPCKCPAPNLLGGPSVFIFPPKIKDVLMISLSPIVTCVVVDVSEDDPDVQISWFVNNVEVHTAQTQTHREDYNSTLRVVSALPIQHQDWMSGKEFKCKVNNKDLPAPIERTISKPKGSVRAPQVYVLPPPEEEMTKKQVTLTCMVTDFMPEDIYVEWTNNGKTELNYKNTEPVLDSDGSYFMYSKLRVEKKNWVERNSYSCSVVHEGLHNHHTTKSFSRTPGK
Summary of the method: as §1

Binder	Kd [1] [nM]	koff [1] [s⁻¹]	kon [1] [M⁻¹ s⁻¹]	t1/2 [1] [h]	Kd [2] [nM]	koff [2] [s⁻¹]	kon [2] [M⁻¹ s⁻¹]	t1/2 [2] [h]
H4H2350P (antibody, human IgG4, V domains shown, human IgG4 Fc (H4H)) VH: QVQLQESGPGLVKPSETLSLTCTVSGGSISTYYWSWFRQPPGKGLEWIGYIYYSGSTNHNPSLKSRVTISVDTSKNQFSLKLRSVTAADTAVYYCARVGPVGWGSWGNFDYWGQGTLVTVSS VL: DIQLTQSPSFLSASVGDRVTITCWASQGISSYLAWSQQKPGKAPKLLIYAASTLQSGVPSRFSGSGSGTEFTLTISSLQPEDFATYYCQQLNSYPWTFGQGTKVEIK	2.01	0.000207	103000	0.933	0.0416	2.12e-05	509000	9.08
H4H2344S (antibody, human IgG4, V domains shown, human IgG4 Fc (H4H)) VH: EVQLVESGGGVVQPGRSLRLSCAASGFSFSDYVMHWVRQAPGKGLEWVASIWFDGSNEFYADSVKGRFTISRDNSKNTLFLQMNSLRAEDTAVYYCAKKGVLVATSAFDIWGQGTMVTVSS VL: DIQMTQSPSSLSASVGDRVTITCRASQSINNYLNWYHQKPGKAPKLLIYAASSLQSGVPSRFSGSGSGTDYTLTISSLQPEDFGNYYCQQSYRTSMYTFGQGTKVEIK	1.31	0.00024	183000	0.8	0.00269	1.56e-06	579000	123
H4H2354S (antibody, human IgG4, V domains shown, human IgG4 Fc (H4H); also called H4H2354S-1) VH: QVQLVESGGGVVQPGRSLRLSCAASGFSFSDYVMHWVRQAPGKGLEWVASIWFDGSNEFYADSVKGRFTISRDNSKNTLFLQMNSLRAEDTAVYYCAKKGVLVATSAFDIWGQGTMVTVSS VL: DIQLTQSPSSLSASVGDRVTITCRASQSINNYLNWYHQKPGKAPKLLIYAASSLQSGVPSRFSGSGSGTDYTLTISSLQPEDFGNYYCQQSYRTSMYTFGQGTKVEIK	0.548	0.00011	200000	1.75	0.0189	1.09e-05	580000	17.6
H4H2293P (antibody, human IgG4, V domains shown, human IgG4 Fc (H4H)) VH: QVQLVESGGGVVQPGRSLRLSCAASGFSFSDYVMHWVRQAPGKGLEWVASIWFDGSNELYADSVKGRFTISRDNSKNTLFLQMNSLRAEDTAVYYCAKKGVLVATSAFHIWGQGTMVTVSS VL: AIQMTQSPSSLSASVGDRVTITCRASQNINNYLNWYHQKPGKAPNLLIYAASSLQSGVPSRFSGSGSGTDYTLTISSLQPEDFGNYYCQQSYSTSMYTFGQGTKLEIK	0.219	0.000127	581000	1.52	0.00159	1.93e-06	1.22e+06	99.8
H4H2346S (antibody, human IgG4, V domains shown, human IgG4 Fc (H4H)) VH: QVQLVESGGGVVQPGRSLRLSCAASGFSFSDYVMHWVRQAPGKGLEWVASIWFDGSNEFYADSVKGRFTISRDNSKNTLFLQMNSLRAEDTAVYYCAKKGVLVATSAFDIWGQGTMVTVSS VL: EIVMTQSPSSLSASVGDRVTITCRASQSINNYLNWYHQKPGKAPKLLIYAASSLQSGVPSRFSGSGSGTDYTLTISSLQPEDFGNYYCQQSYRTSMYTFGQGTKVEIK	0.43	7.99e-05	186000	2.42	0.0222	1.44e-05	647000	13.4
H4H2341S (antibody, human IgG4, V domains shown, human IgG4 Fc (H4H)) VH: EVQLVESGAEVKKSGSSVKVSCKASGGTFSRYAISWVRQAPGQGLEWMGGIIPLFGTLNYAQKFQGRVTLTTDESTSTAYMELSSLRSEDTAVYYCAVFYYGSGSYRNWFDPWGQGTLVTVSS VL: not shown	1.68	0.000267	159000	0.717	≤ 0.00168	≤ 1e-06	596000	192
H4H2236N3 (antibody, human IgG4, V domains shown, human IgG4 Fc (H4H)) VH: EVQLLESGGNLVQPGGSLRLSCAASGFTFSSYAMTWVRQAPGKGLEWVSTISGSGTSTYYADSVKGRFTISRDNSRDTVFLQMNSLRAEDTAVYYCSKPSALRFLHWLAMDVWGQGTLVTVSS VL: DIQMTQSPSSLSAFVGDRVTITCRASQDIRNYLDWFQQKPGKAPKSLIYAASNLQSGVPSRFGGSGSGTDFTLTINSLQPEDFVTYYCQQYNSYPPTFGGGTKVEIK	0.253	0.000233	922000	0.833	–	–	–	–
H4H2291S (antibody, human IgG4, V domains shown, human IgG4 Fc (H4H)) VH: EVQLVESGGGLVQPGESLRLSCAASGFTFSNYAMSWVRQAPGKGLEWVSVISGSGGSTYYADSVKGRFTMSRDNSKNTLYLQMNSLRAEDTAVYYCAKPPSRAARYFNYGMDVWGQGTTVTVSS VL: AIRMTQSPSSVSASVGDRVTITCRASQGISSWLAWYQQKPGKAPKLLIYAASSLQSGVPSRFSGSGSGTDFTLTISSLQPEDFATYYCQQANSFPFTFGGGTKVEIK	0.393	0.000164	418000	1.17	0.00463	4.78e-06	1.03e+06	40.3
H4H2295S (antibody, human IgG4, V domains shown, human IgG4 Fc (H4H)) VH: EVQLVESGGGLVQAGGSLRLSCVASGFTFSSYAMSWVRQAPGKGLEWVSAISGSGGSTYSADSVKGRFTISRDNSKNTLYLQMNSLRAEDTAVYYCTKPSSYSSSNFYYGMDVWGQGTTVTVSS VL: DIQMTQSPSSVSASVGDRVTITCRASQGISSWLAWYQQKPGKAPKLLIYTASSLQSGVPSRFSGSGSRTDFTLTISSLQPEDFATYYCQQTNSLPLTFGPGTKVEIK	0.54	0.000256	475000	0.75	0.00157	1.69e-06	1.08e+06	114
H4H2357S (antibody, human IgG4, V domains shown, human IgG4 Fc (H4H)) VH: EVQLVESGGGLVQPGGSLRLSCAASTFTFSSYAMTWVRQAPGKGLEWVSSISGSGDSTYYADSVKGRFTISRDNSKNTLFLQMNSLRAEDTAVYYCAKKDGPGRYYVRYGMDVWGQGTTVTVSS VL: DIQMTQSPSSVSASVGDRVTITCRASQGISSWLAWYQQKPGKAPKLLIYTTSSLQSGVPSRFSGSGSGTDFTLTISSLQPEDFATYYCQQANSFPLTFGGGTKVDIK	2.42	0.000557	230000	0.35	0.0324	2.52e-05	779000	7.63
H4H2296S (antibody, human IgG4, V domains shown, human IgG4 Fc (H4H)) VH: not shown VL: DIVMTQSPSSVSASVGDRVTITCRASQGISSWLAWYQQKPGKAPKLLIYAASSLRSGVPSRFSGSGSGTDFTLTITSLQPEDFATYYCQHTNSFPFTFGPGTKVEIK	0.332	0.000187	563000	1.03	0.00337	4.17e-06	1.24e+06	46.2
H4H2364S (antibody, human IgG4, V domains shown, human IgG4 Fc (H4H)) VH: EVQLVESGGGLEQPGGSLRLSCAASGFTFSSYVMSWVRQVPGKGLEWVSVISGSGGSTYYADSVKGRFTISRDNSKNTLYLQMNSLRAEDTAVYYCAKPSSYSSSNFHYGMDVWGQGTTVTVSS VL: DIQMTQSPYSVSASVGDRVTITCRASQGISSWLAWYQQKPGRAPKLLIYAASSLQSGVPSRFSGSGSGTDFTLTISSLQPEDFATYYCQKTNSFPFTFGPGTKVEIK	0.104	3.67e-05	353000	5.25	≤ 0.0013	≤ 1e-06	771000	192
H4H2345S (antibody, human IgG4, V domains shown, human IgG4 Fc (H4H)) VH: EVQLVESGGGLVRPGRSLRLSCAASGFTFDNYAMHWVRQVPGKGLEWVSGITWNSVSLGYADSVKGRFTISRDNAQNSLYLQMNSLRTVDTALYYCAKDRWGGSYYFDFWGQGTLVTVSS VL: DIVMTQSPSSLSASVGDRVTITCRASQGISNYLAWYQQKPGKVPKLLIYSASTLQSGVPSRFSGSGSGTDFTLTISNLQPEDFATFFCQKYNSAPTFGGGTKVEIK	29.7	0.00323	109000	0.0667	0.0584	3.01e-05	516000	6.4
H4H2355S (antibody, human IgG4, V domains shown, human IgG4 Fc (H4H)) VH: EVQLVESGGGLVQPGGSLRLSCAASGFTFSSYAMSWVRQVPGKGLEWVSAISGSGDNTYNAESVKGRFTISRDNSKNMLYLQMNSLRAEDTAVYYCAKTKFSSSLLFDYWGQGTLVTVSS VL: not shown	0.821	0.000152	186000	1.27	≤ 0.00164	≤ 1e-06	611000	192
